Experimental data as given in article PMC7232412.

What was measured:
[1] = biological target: HIV-1 Gag p6 with ubiquitin fused to its C-terminus (pGBT p6-Ub), P04591;P0CG48; test: yeast 2-hybrid assay; details: parent: est. 1.0; read off a plot
HIV-1 Gag p6 (pGBT p6) = HIV-1 Gag p6 (pGBT p6) (UniProt P04591); test: yeast 2-hybrid assay; details: parent: est. 1.0; read off a plot

human Tsg101 wild-type (pGAD-hTsg101) (from UniProt Q99816) Y43A
ratio to parent [1]: 1.5 | ratio to parent (HIV-1 Gag p6 (pGBT p6)): 1.4
